Data set [1] has as its system stomata of Arabidopsis epidermal peels. The data set can be described thus: Stomatal aperture in epidermal peels of Col-0 and AtGCN4 overexpressor lines. The format is cell-based. Particulars: coronatine treatment. On the procedure:
A representative histogram is depicted of stomatal aperture in Arabidopsis plant epidermal peels from wild-type Col-0 and GCN4-overexpressing (AtGCN4-OE6 and AtGCN4-OE16) lines measured 4 hours after treatment with MES buffer, COR, ABA, or COR+ABA.
Upon detection of PAMPs, stomata rapidly closes to prevent entry of the pathogen into apoplast (Melotto et al., 2006; Lee et al., 2013). […] Epidermal peels of AtGCN4 overexpressing lines were used to investigate whether stomata reopen after treatment with MES buffer (stomata opening buffer; control) or the host pathogen P. syringae pv. tomato DC3000. In wild-type Col-0, stomata reopened 3 hpi, while in the AtGCN4 overexpressor lines (AtGCN4-OE6 and AtGCN4-OE16), stomata remained closed even 4 hpi with P. syringae pv. tomato DC3000. Stomatal aperture was measured after ABA and coronatine treatments in order to investigate stomatal function in AtGCN4 overexpressor lines. ABA treatment induces stomatal closure in plants. After ABA treatment, the stomatal aperture size was reduced due to closing in both wild-type Col-0 and the AtGCN4 overexpressor lines.

For data set [2], the target named is T1, Jasmonate-Zim-Domain Protein 9 (JAZ9, At1g70700), full-length, Q8W4J8.
T1 chain: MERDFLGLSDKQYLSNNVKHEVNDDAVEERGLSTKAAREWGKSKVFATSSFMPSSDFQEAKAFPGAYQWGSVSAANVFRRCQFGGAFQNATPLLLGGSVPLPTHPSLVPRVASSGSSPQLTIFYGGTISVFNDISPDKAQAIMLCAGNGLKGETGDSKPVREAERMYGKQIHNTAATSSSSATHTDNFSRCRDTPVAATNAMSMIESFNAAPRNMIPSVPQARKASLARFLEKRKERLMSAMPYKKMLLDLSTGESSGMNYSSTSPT

The target in data set [3] is T2, AtGCN4 (Arabidopsis thaliana GCN4, general control non-repressible 4, At3G54540) (Arabidopsis thaliana, UniProt Q9M1H3 1-723).
T2 construct: Yeast two-hybrid fusion; in BiFC the C-terminal half of YFP was fused to the N-terminus of AtGCN4 (c-YFP-AtGCN4); also called c-YFP-AtGCN4
T2 sequence: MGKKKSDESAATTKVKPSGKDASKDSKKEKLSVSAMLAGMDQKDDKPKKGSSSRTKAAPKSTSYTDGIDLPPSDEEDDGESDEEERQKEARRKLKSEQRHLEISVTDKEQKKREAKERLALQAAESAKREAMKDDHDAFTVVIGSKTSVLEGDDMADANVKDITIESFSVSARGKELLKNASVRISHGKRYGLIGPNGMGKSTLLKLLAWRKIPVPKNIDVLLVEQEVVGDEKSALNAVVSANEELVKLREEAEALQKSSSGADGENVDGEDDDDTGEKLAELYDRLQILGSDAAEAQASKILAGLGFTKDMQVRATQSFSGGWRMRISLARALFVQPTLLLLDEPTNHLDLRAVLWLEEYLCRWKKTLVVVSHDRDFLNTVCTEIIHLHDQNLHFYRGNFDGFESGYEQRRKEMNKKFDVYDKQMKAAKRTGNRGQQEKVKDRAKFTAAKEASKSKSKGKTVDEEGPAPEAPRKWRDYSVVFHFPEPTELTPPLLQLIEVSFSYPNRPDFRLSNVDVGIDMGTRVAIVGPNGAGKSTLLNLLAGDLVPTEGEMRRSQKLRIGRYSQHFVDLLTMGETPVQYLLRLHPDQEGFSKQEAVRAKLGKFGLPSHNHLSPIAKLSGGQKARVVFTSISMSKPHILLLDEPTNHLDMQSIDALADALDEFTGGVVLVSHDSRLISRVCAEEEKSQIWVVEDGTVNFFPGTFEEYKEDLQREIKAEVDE
The data set can be described thus: title of Example 19 (yeast two-hybrid, BiFC). The text has this:
Stable transgenic lines were developed expressing GFP fused to the C-terminal end of AtGCN4 and driven under its native promoter. AtGCN4-GFP localized in guard cells, plasma membrane, and cytoplasm. Without being limited by theory, as AtGCN4 localized in the plasma membrane and guard cells, and plays role in the stomatal function, the present inventors reasoned that AtGCN4 interacts with other proteins responsible for stomatal function, such as SLAC1 and RIN4. SLAC1 closes stomata on ABA signaling (Vahisalu et al., 2008) and RIN4 activates a plasma membrane H⁺-ATPase and opens stomata (Liu et al., 2009). A yeast two-hybrid system between GCN4:SLAC1 and GCN4:RIN4 was used to investigate potential protein-protein interactions. AtGCN4 interacted with SLAC1 and RIN4. A BiFC assay (Hu et al., 2002) was used to verify these interactions in planta. AtGCN4 was co-transformed in yeast with either SLAC1 or RIN4 to observe protein-protein interaction using a yeast two-hybrid system. […] Protein-protein interactions were observed as yellow fluorescence with an equivalent bright field image. […] Protein-protein interactions were observed as yellow fluorescence while the plasma membrane was visualized as red fluorescence. […]

For `CC[C@H]1C=C(C(=O)N[C@@]2(C(=O)O)C[C@@H]2CC)[C@H]2CCC(=O)[C@H]2C1` [coronatine], the Stomatal aperture size entry in data set [1] (Col-0 plants) was “increased aperture size”; in data set [1] (GCN4 overexpressor lines), “did not increase”.

B1: His-tagged NHR1A protein expressed in E. coli (full-length recombinant AtNHR1A, N-terminal His-tagged fusion protein) (protein)
chain: MTIVSTCCPFGLSNVTKCINFVQIKEAKTMVKYNFKKITVVPNGKQFVDIVLSRTQRQTPTVVHKGDRICKLRSFYMRKVKFTESNFNEKLSAIIDEFPRLKEIQPFYEDLLHVLYNKDHYKLALGQVNTAKNKISKIAMDYVKLLKHGDSLYRCKCLKVAALGRMCTVMKGIGPSLAYLEQVRQHIARLPSIDPNTRTLLICGCPNVGKSSFMNKVTRADVAVQPYAFTTKSLFLGHTDYKCLRYQVIDTPGLLDREIEDRNIIELCSITALAHIRAAVLFFLDISGSCGYTIAQQASLFHNIKSVFKNKPLVIVCNKTDLMPMENLSEEDRKLIEEMKDEAMKTEMGASEEAVILEMSTLTEEGVMSRLLDQRVAAKMKSKKIGDHLNRFHVAMPKSRDDQERLPCIPQVAGEKEKRKTEKDLEDENGGAGVYSASLKKNYILAKEEWKDDIIPEICDCHNVADFVDSDILNRLEELTSEESLRKAEEEEVGFEIEGEELTEKEKNDLAAIRKKKALLIEESRLKKSNAQNRAAVPRKFDKDKKFTRKRMGRELSSLGLDPSSALNRARSKSRGRKRERYDDLSNDAMDVDVNDDEQHKKKKMCLRSKSRSLSRSRSVSRPPHEVVPGEGFKDSSQKIKAIKIGHKSHRKRDKAARRGEADRVIPSLKPKHLFSGKRGNGKNQRR
With B1, the “rate of GTP hydrolysis” value in data set [2] is on record as “in the presence of JAZ9, the rate of GTP hydrolysis significantly decreased”.

B2: RIN4 (Rpm1 Interaction Protein 4) (other, UniProt Q8GYN5 1-211, looked up)
chain: MARSNVPKFGNWEAEENVPYTAYFDKARKTRAPGSKIMNPNDPEYNSDSQSQAPPHPPSSRTKPEQVDTVRRSREHMRSREESELKQFGDAGGSSNEAANKRQGRASQNNSYDNKSPLHKNSYDGTGKSRPKPTNLRADESPEKVTVVPKFGDWDENNPSSADGYTHIFNKVREERSSGANVSGSSRTPTHQSSRNPNNTSSCCCFGFGGK
notes: Yeast two-hybrid fusion; in BiFC the N-terminal half of YFP was fused to the C-terminus of RIN4 (RIN4-nYFP); also called RIN4-nYFP
For B2, the binding result in data set [3] is recorded as “binds”.

B3: SLAC1 (Slow Anion Channel-Associated 1) (other, UniProt Q9LD83 1-556, looked up)
chain: MERKQSNAHSTFADINEVEDEAEQELQQQENNNNKRFSGNRGPNRGKQRPFRGFSRQVSLETGFSVLNRESRERDDKKSLPRSGRSFGGFESGGIINGGDGRKTDFSMFRTKSTLSKQKSLLPSIIRERDIENSLRTEDGETKDDSINENVSAGRYFAALRGPELDEVKDNEDILLPKEEQWPFLLRFPIGCFGICLGLSSQAVLWLALAKSPATNFLHITPLINLVVWLFSLVVLVSVSFTYILKCIFYFEAVKREYFHPVRVNFFFAPWVVCMFLAISVPPMFSPNRKYLHPAIWCVFMGPYFFLELKIYGQWLSGGKRRLCKVANPSSHLSVVGNFVGAILASKVGWDEVAKFLWAVGFAHYLVVFVTLYQRLPTSEALPKELHPVYSMFIAAPSAASIAWNTIYGQFDGCSRTCFFIALFLYISLVARINFFTGFKFSVAWWSYTFPMTTASVATIKYAEAVPGYPSRALALTLSFISTAMVCVLFVSTLLHAFVWQTLFPNDLAIAITKRKLTREKKPFKRAYDLKRWTKQALAKKISAEKDFEAEEESHH
notes: Yeast two-hybrid fusion; in BiFC the N-terminal half of YFP was fused to the C-terminus of SLAC1 (SLAC1-nYFP); also called SLAC1-nYFP
With B3, the binding result in data set [3] is on record as “binds”.
